Data reported in paper PMC8855710.

Legend:
[1] = molecular target: htt^ex1Q7 (huntingtin exon-1 polypeptide with seven glutamines); assay: NMR titration
[2] = molecular target: PL: binary complex of monomeric htt^ex1Q7 with Fyn SH3 (not stated | Gallus gallus) (UniProt Q05876); assay: NMR titration
[3] = molecular target: huntingtin exon 1 (httex1Q7) dimer exon 1 (Homo sapiens) (UniProt P42858); settings: cited from earlier work

Gallus gallus tyrosine kinase Fyn SH3 domain (wild type) (from UniProt Q05876 85-135) (domain or fragment)
Kd [1]: 210 µM

PL: binary complex of monomeric htt^ex1Q7 with Fyn SH3 (from UniProt Q05876 85-135)
stoichiometry N [2]: 2

huntingtin exon 1 (httex1Q7) dimer exon 1 (from UniProt P42858)
Kd [3]: 25 µM
